From US20220177587A1, “METHODS AND USES OF VARIANT CD80 FUSION PROTEINS AND RELATED CONSTRUCTS” (Alpine Immune Sciences, Inc., priority 2018, published 2022) come the findings set out here.

Like-named read-outs stand apart in the source and are kept apart here.

The target in experiment [1] is CD28, endogenously expressed on Jurkat/IL2 reporter cells (human) (UniProt P10747). The experiment can be described thus: flow cytometry on Jurkat/IL2 reporter cells (endogenous CD28), 33.3 nM Fc fusion, PE anti-human Fc. For orientation: A flow cytometer gives signals particle by particle.
Experiment [2] has as its target human PD-L1 (huPD-L1), on stably transduced CHO cells (human) (UniProt Q9NZQ7). The experiment can be described thus: flow cytometry on CHO cells stably expressing huPD-L1, 33.3 nM Fc fusion, PE anti-human Fc.
Experiment [3] addresses PD-L1 (human) (UniProt Q9NZQ7). The experiment can be described thus: flow cytometry, CHO cells stably expressing PD-L1.
Target sequence in this assay (Q9NZQ7 19-290): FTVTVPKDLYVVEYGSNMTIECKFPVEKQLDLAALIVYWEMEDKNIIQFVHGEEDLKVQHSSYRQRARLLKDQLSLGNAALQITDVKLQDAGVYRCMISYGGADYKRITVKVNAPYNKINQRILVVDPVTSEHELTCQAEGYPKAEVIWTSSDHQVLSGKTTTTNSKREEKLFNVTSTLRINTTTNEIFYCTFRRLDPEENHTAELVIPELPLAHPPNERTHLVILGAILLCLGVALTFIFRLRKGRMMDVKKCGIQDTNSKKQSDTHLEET
Experiment [4] has as its target CD28 (human) (UniProt P10747). The experiment can be described thus: flow cytometry, Jurkat cells (CD28).
In experiment [5] the target is human CTLA-4 (human) (UniProt P16410). Kind of experiment: flow cytometry, CHO cells stably expressing CTLA4.
Target sequence in this assay (P16410 36-223): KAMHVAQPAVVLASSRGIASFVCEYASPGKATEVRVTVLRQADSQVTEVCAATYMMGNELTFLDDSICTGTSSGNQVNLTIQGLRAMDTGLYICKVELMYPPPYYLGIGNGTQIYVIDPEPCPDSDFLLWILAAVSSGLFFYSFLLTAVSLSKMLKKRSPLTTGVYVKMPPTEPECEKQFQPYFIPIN
The target in experiment [6] is CD28 (human) (UniProt P10747).
Experiment [7] has as its target PD-L1 (human) (UniProt Q9NZQ7).
Target sequence in this assay (Q9NZQ7 19-290): as the sequence (Q9NZQ7 19-290) above
Experiment [8] deals with CD28 (human) (UniProt P10747). Kind of experiment: flow cytometry, Expi293F cells transfected with CD28.
The target in experiment [9] is human CTLA-4 (huCTLA4), on stably transduced CHO cells (human) (UniProt P16410). The experiment can be described thus: flow cytometry on CHO cells stably expressing huCTLA4, 33.3 nM Fc fusion, PE anti-human Fc.
Experiment [10] concerns the target human CTLA-4 (human) (UniProt P16410). Kind of experiment: flow cytometry, Expi293F cells transfected with CTLA-4.
Experiment [11] concerns the target PD-L1 (human) (UniProt Q9NZQ7). The experiment can be described thus: flow cytometry, Expi293F cells transfected with PD-L1.
Experiment [12] has as its target human CTLA-4 (human) (UniProt P16410). Kind of experiment: flow cytometry, CHO cells expressing huCTLA4.
Target sequence in this assay (P16410 36-223): as the sequence (P16410 36-223) above
Experiment [13] has as its target PD-L1 (human) (UniProt Q9NZQ7). Kind of experiment: flow cytometry, CHO cells expressing huPD-L1.
Target sequence in this assay (Q9NZQ7 19-290): as the sequence (Q9NZQ7 19-290) above
Experiment [14] has as its target PD-L1 (human) (UniProt Q9NZQ7). Kind of experiment: flow cytometry, CHO cells stably expressing PD-L1. This is another data set of the same source.
Target sequence in this assay (Q9NZQ7 19-290): as above
The target of experiment [15] is PD-L1 (human) (UniProt Q9NZQ7). Kind of experiment: flow cytometry, CHO cells expressing PD-L1.
Target sequence in this assay (Q9NZQ7 19-290): as above
Experiment [16] has as its target CD28 (human) (UniProt P10747). Kind of experiment: flow cytometry, Jurkat cells (CD28). The source holds these as a separate data set.
For experiment [17], the target named is human CTLA-4 (human) (UniProt P16410). Kind of experiment: flow cytometry, CHO cells stably expressing CTLA4. This is another data set of the same source.
Target sequence in this assay (P16410 36-223): as the sequence (P16410 36-223) above
The target in experiment [18] is CD28 (human) (UniProt P10747). The experiment can be described thus: flow cytometry, Jurkat cells (CD28). The source holds these as a separate data set.
Experiment [19] has as its target human CTLA-4 (human) (UniProt P16410). Kind of experiment: flow cytometry, CHO cells stably expressing CTLA4. The source holds these as a separate data set.
Target sequence in this assay (P16410 36-223): as above
Experiment [20] addresses PD-L1 (human) (UniProt Q9NZQ7). Kind of experiment: flow cytometry, CHO cells stably expressing PD-L1. This is another data set of the same source.
Target sequence in this assay (Q9NZQ7 19-290): as the sequence (Q9NZQ7 19-290) above
Experiment [21] concerns the target human CTLA-4 (human) (UniProt P16410). Kind of experiment: flow cytometry, CHO cells expressing CTLA4.
Target sequence in this assay (P16410 36-223): as the sequence (P16410 36-223) above

Sequence of human CTLA-4 (huCTLA4), on stably transduced CHO cells (human) (P16410 36-223): as above
Sequence of CD80 WT IgV-Fc (Fc fusion) (chain): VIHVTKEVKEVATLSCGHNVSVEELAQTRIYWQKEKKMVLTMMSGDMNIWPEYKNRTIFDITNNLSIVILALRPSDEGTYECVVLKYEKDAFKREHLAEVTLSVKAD
Sequence of human PD-L1 (huPD-L1), on stably transduced CHO cells (human) (Q9NZQ7 19-290): as the sequence (Q9NZQ7 19-290) above

In the case of “variant CD80 IgV-Fc H18Y/E35D/M47V/N48K (Fc fusion)”, the MFI at 33.3 nM in [1] amounted to 841 MFI; in experiment [2] it was 6460 MFI.

“CD80 IgV-Fc H18Y/E35D/M47L/Y53F/V68M/A71G/K93R/E95V (Fc fusion)”: the figures for the MFI at 33.3 nM in experiment [3], in experiment [4] and in [5] were 9340 MFI, 2190 MFI and 19800 MFI, respectively.

In [6], WT CD80 IgV-Fc (Fc fusion) displayed a Jurkat/IL2 reporter RLU at 50 nM, K562/OKT3/PD-L1 aAPC of 663 RLU and a Jurkat/IL2 reporter RLU at 50 nM, K562/OKT3 aAPC without PD-L1 of 1250 RLU. The Jurkat/IL2 reporter RLU at 50 nM, K562/OKT3/PD-L1 aAPC in experiment [7] worked out at 663 RLU.

Regarding “CD80 M38V/T41D/M43I/W50G/D76G/V83A/K89E/I118V/T120S/I126V/T130A ECD-Fc (Fc fusion)”, the MFI in experiment [8] is 5 MFI.

For the substance “variant CD80 IgV-Fc E35D/M43I/D46E/A71G/L85M (Fc fusion)”, the figures for the MFI at 33.3 nM in experiment [9] and in experiment [2] were 26900 MFI and 7140 MFI, respectively.

With “CD80 IgV-Fc H18Y/E35D/V68M/L85M/R94Q (Fc fusion)”, the Fold change to WT CD80 is 131 fold in experiment [3] and 23.3 fold in experiment [4]. Besides, the MFI at 33.3 nM in experiment [3] was 9280 MFI; in experiment [4], 962 MFI; in experiment [5] it was 22000 MFI.

“variant CD80 IgV-Fc E35D/M47I/N48K/I61F (Fc fusion)”: the MFI at 33.3 nM in experiment [1] was 816 MFI; in experiment [9], 25900 MFI; in experiment [2] it was 5630 MFI.

For “CD80 IgV-Fc H18Y/E35D/D46E/M47I/V68M/R94L (Fc fusion)”, the MFI at 33.3 nM in experiment [3] is 2080 MFI; in experiment [5], 19200 MFI.

For the substance “CD80 E24G/L25P/L70Q/A91G/I118V/T120S/N152T ECD-Fc (Fc fusion)”, the MFI in experiment [8] was found to be 26 MFI; in experiment [10], 38 MFI.

Regarding “CD80 K54M/L70Q/A91G/Y164H ECD-Fc (SEQ ID NO 1399) (Fc fusion)”, the MFI turned out to be 68 MFI in experiment [8], 5 MFI in [11] and 131 MFI in experiment [10]. Moreover, the parental ratio in experiment [8] was 0.71; in [11], 0.08; in experiment [10], 0.63.

In the case of “variant CD80 IgV-Fc E35D/M38T/M43V/M47V/N48R/L85Q (Fc fusion)”, the MFI at 33.3 nM in experiment [12] came out at 204000 MFI; in experiment [13] it was 21800 MFI.

Consider “variant CD80 IgV-Fc E35D/M47V/L85M/R94Q (Fc fusion)”, for which the MFI at 33.3 nM in experiment [1] is 23.7 MFI; in [9], 23300 MFI.

As to “CD80 IgV-Fc H18Y/E35D/M47L/V68M/E95V/L97Q (Fc fusion)”, the MFI at 33.3 nM in experiment [3] is 9630 MFI; in [4], 2600 MFI; in [5], 18000 MFI.

For “CD80 R29H/E52G/L70R/E88G/A91G/T130A ECD-Fc (Fc fusion)”, the MFI in experiment [8] came out at 100 MFI; in experiment [11] it was 5 MFI; in experiment [10], 119 MFI. In addition, the parental ratio in [11] was 0.08; in experiment [10] it was 0.57.

“variant CD80 IgV-Fc E35D/M47V/I61V/L85M (Fc fusion)”: the values for the MFI at 33.3 nM in experiment [1], in experiment [9] and in [2] were 274 MFI, 28800 MFI and 3050 MFI, respectively.

WT CD80 ECD-Fc (Example 25) (Fc fusion) had an MFI in experiment [11] of 70 MFI.

In the case of “CD80 L65H/D90G/T110A/F116L ECD-Fc (Fc fusion)”, the results for the MFI in experiment [8] and in [10] were 33 MFI and 121 MFI, respectively.

In the case of “CD80 V20L/L70Q/A91S/I118V/T120S/T130A ECD-Fc (Fc fusion)”, the MFI amounted to 105 MFI in experiment [8], 9 MFI in [11] and 200 MFI in [10]. In addition, the results for the parental ratio in experiment [11] and in experiment [10] were 0.13 and 0.96, respectively.

With “variant CD80 IgV-Fc E35D/M47V/T62S/L85Q (Fc fusion)”, the results for the MFI at 33.3 nM in experiment [1] and in experiment [9] were 99.4 MFI and 31200 MFI, respectively.

Consider CD80 WT IgV-Fc (Fc fusion), for which the MFI at 33.3 nM in [14] came out at 83 MFI; in [1], 66 MFI; in experiment [15] it was 44 MFI; in experiment [9], 1920 MFI; in experiment [16], 95 MFI; in experiment [16] (record 2), 41 MFI. Also, the MFI at 33.3 nM worked out at 1360 MFI in experiment [17]; 70.9 MFI in experiment [3]; 41.2 MFI in experiment [4]; 43.9 MFI in experiment [18]; 1040 MFI in experiment [5]; 1030 MFI in experiment [19]. In addition, the MFI at 33.3 nM in experiment [20] was determined as 43.6 MFI; in [2], 70.3 MFI; in experiment [21], 26400 MFI.

Turning to “CD80 E35G/K54E/A71D/L72P IgV-Fc (effector) (Fc fusion)”, in [6], the Jurkat/IL2 reporter RLU at 50 nM, K562/OKT3/PD-L1 aAPC was 805 RLU and the Jurkat/IL2 reporter RLU at 50 nM, K562/OKT3 aAPC without PD-L1 was found to be 1510 RLU. This substance also showed a Jurkat/IL2 reporter RLU at 50 nM, K562/OKT3/PD-L1 aAPC in experiment [7] of 805 RLU.
